Positions count from the first letter of the chain named. Names and notes keep the numbering of the source.

The chains are these.
B1: CE115HA000 W33Y one-arm antibody (antibody, human IgG1, kappa, L234A L235A, N297A, name in Kabat numbering)
heavy: QVQLVESGGGVVQPGRSLRLSCAASGFTFSNAYMHWVRQAPGKGLEWVAQIKAKSNNYATYYAESVKGRFTISRDDSKNSLYLQMNSLKTEDTAVYYCRYVHYGAYYGVDAWGQGTTVTVSSASTKGPSVFPLAPSSKSTSGGTAALGCLVKDYFPEPVTVSWNSGALTSGVHTFPAVLQSSGLYSLSSVVTVPSSSLGTQTYICNVNHKPSNTKVDKKVEPKSCDKTHTCPPCPAPEAAGGPSVFLFPPKPKDTLMISRTPEVTCVVVDVSHEDPEVKFNWYVDGVEVHNAKTKPREEQYASTYRVVSVLTVLHQDWLNGKEYKCKVSNKALPAPIEKTISKAKGQPREPQVYTLPPSRCELTKNQVSLSCAVKGFYPSDIAVEWESNGQPENNYKTTPPVLDSDGSFFLVSKLTVDKSRWQQGNVFSCSVMHEALHNHYTQKSLSLSPDYKDDDDK
chain: EPKSSDKTHTCPPCPAPELLGGPSVFLFPPKPKDTLMISRTPEVTCVVVDVSHEDPEVKFNWYVDGVEVHNAKTKPREEQYNSTYRVVSVLTVLHQDWLNGKEYKCKVSNKALPAPIEKTISKAKGQPREPQVCTLPPSRDELTKNQVSLWCLVKGFYPSDIAVEWESNGQPENNYKTTPPVLDSDGSFFLYSKLTVDKSRWQQGNVFSCSVMHEALHNRYTQKSLSLSP
light: DIVMTQSPLSLPVTPGEPASISCRSSQSLVHSNRNTYLHWYQQKPGQAPRLLIYKVSNRFSGVPDRFSGSGSGTDFTLKISRVEAEDVGVYYCGQGTQVPYTFGQGTKLEIKRTVAAPSVFIFPPSDEQLKSGTASVVCLLNNFYPREAKVQWKVDNALQSGNSQESVTEQDSKDSTYSLSSTLTLSKADYEKHKVYACEVTHQGLSSPVTKSFNRGEC
B2: CE115HA000 Y59D one-arm antibody (antibody, human IgG1, kappa, L234A L235A, N297A, name in Kabat numbering)
heavy: B1 heavy with Y33W, Y62D
chain: B1 chain
light: B1 light
B3: CE115HA000 Y97D one-arm antibody (antibody, human IgG1, kappa, L234A L235A, N297A, name in Kabat numbering)
heavy: B1 heavy with Y33W, Y103D
chain: B1 chain
light: B1 light
B4: CE115HA000 Y100S one-arm antibody (antibody, human IgG1, kappa, L234A L235A, N297A, name in Kabat numbering)
heavy: B1 heavy with Y33W, Y106S
chain: B1 chain
light: B1 light
B5: CE115HA000 Y97S one-arm antibody (antibody, human IgG1, kappa, L234A L235A, N297A, name in Kabat numbering)
heavy: B1 heavy with Y33W, Y103S
chain: B1 chain
light: B1 light
B6: CE115HA000 Y100D one-arm antibody (antibody, human IgG1, kappa, L234A L235A, N297A, name in Kabat numbering)
heavy: B1 heavy with Y33W, Y106D
chain: B1 chain
light: B1 light
B7: CE115HA000 Y55D one-arm antibody (antibody, human IgG1, kappa, L234A L235A, N297A, name in Kabat numbering)
heavy: B1 heavy with Y33W, Y58D
chain: B1 chain
light: B1 light
B8: CE115HA000 Y100V one-arm antibody (antibody, human IgG1, kappa, L234A L235A, N297A, name in Kabat numbering)
heavy: B1 heavy with Y33W, Y106V
chain: B1 chain
light: B1 light
B9: CE115HA000 Y58N one-arm antibody (antibody, human IgG1, kappa, L234A L235A, N297A, name in Kabat numbering)
heavy: B1 heavy with Y33W, Y61N
chain: B1 chain
light: B1 light
B10: CE115HA000 Y97P one-arm antibody (antibody, human IgG1, kappa, L234A L235A, N297A, name in Kabat numbering)
heavy: B1 heavy with Y33W, Y103P
chain: B1 chain
light: B1 light
B11: CE115HA000 Y55S one-arm antibody (antibody, human IgG1, kappa, L234A L235A, N297A, name in Kabat numbering)
heavy: B1 heavy with Y33W, Y58S
chain: B1 chain
light: B1 light
B12: CE115HA000 Y97R one-arm antibody (antibody, human IgG1, kappa, L234A L235A, N297A, name in Kabat numbering)
heavy: B1 heavy with Y33W, Y103R
chain: B1 chain
light: B1 light
B13: CE115HA000 Y58K one-arm antibody (antibody, human IgG1, kappa, L234A L235A, N297A, name in Kabat numbering)
heavy: B1 heavy with Y33W, Y61K
chain: B1 chain
light: B1 light
B14: CE115HA000 Y59A one-arm antibody (antibody, human IgG1, kappa, L234A L235A, N297A, name in Kabat numbering)
heavy: B1 heavy with Y33W, Y62A
chain: B1 chain
light: B1 light
B15: CE115HA000 Y100G one-arm antibody (antibody, human IgG1, kappa, L234A L235A, N297A, name in Kabat numbering)
heavy: B1 heavy with Y33W, Y106G
chain: B1 chain
light: B1 light
B16: CE115HA000 Y58S one-arm antibody (antibody, human IgG1, kappa, L234A L235A, N297A, name in Kabat numbering)
heavy: B1 heavy with Y33W, Y61S
chain: B1 chain
light: B1 light
B17: CE115HA000 Y55G one-arm antibody (antibody, human IgG1, kappa, L234A L235A, N297A, name in Kabat numbering)
heavy: B1 heavy with Y33W, Y58G
chain: B1 chain
light: B1 light
B18: CE115HA000 Y58L one-arm antibody (antibody, human IgG1, kappa, L234A L235A, N297A, name in Kabat numbering)
heavy: B1 heavy with Y33W, Y61L
chain: B1 chain
light: B1 light
B19: CE115HA000 Y58Q one-arm antibody (antibody, human IgG1, kappa, L234A L235A, N297A, name in Kabat numbering)
heavy: B1 heavy with Y33W, Y61Q
chain: B1 chain
light: B1 light
B20: CE115HA000 Y100K one-arm antibody (antibody, human IgG1, kappa, L234A L235A, N297A, name in Kabat numbering)
heavy: B1 heavy with Y33W, Y106K
chain: B1 chain
light: B1 light
B21: CE115HA000 Y97G one-arm antibody (antibody, human IgG1, kappa, L234A L235A, N297A, name in Kabat numbering)
heavy: B1 heavy with Y33W, Y103G
chain: B1 chain
light: B1 light
B22: CE115HA000 Y59E one-arm antibody (antibody, human IgG1, kappa, L234A L235A, N297A, name in Kabat numbering)
heavy: B1 heavy with Y33W, Y62E
chain: B1 chain
light: B1 light
B23: CE115HA000 Y100W one-arm antibody (antibody, human IgG1, kappa, L234A L235A, N297A, name in Kabat numbering)
heavy: B1 heavy with Y33W, Y106W
chain: B1 chain
light: B1 light
B24: CE115HA000 Y100A one-arm antibody (antibody, human IgG1, kappa, L234A L235A, N297A, name in Kabat numbering)
heavy: B1 heavy with Y33W, Y106A
chain: B1 chain
light: B1 light
B25: CE115HA000 Y97A one-arm antibody (antibody, human IgG1, kappa, L234A L235A, N297A, name in Kabat numbering)
heavy: B1 heavy with Y33W, Y103A
chain: B1 chain
light: B1 light
B26: CE115HA000 Y58D one-arm antibody (antibody, human IgG1, kappa, L234A L235A, N297A, name in Kabat numbering)
heavy: B1 heavy with Y33W, Y61D
chain: B1 chain
light: B1 light
B27: CE115HA000 Y100L one-arm antibody (antibody, human IgG1, kappa, L234A L235A, N297A, name in Kabat numbering)
heavy: B1 heavy with Y33W, Y106L
chain: B1 chain
light: B1 light
B28: CE115HA000 Y100P one-arm antibody (antibody, human IgG1, kappa, L234A L235A, N297A, name in Kabat numbering)
heavy: B1 heavy with Y33W, Y106P
chain: B1 chain
light: B1 light
B29: CE115HA000 Y58A one-arm antibody (antibody, human IgG1, kappa, L234A L235A, N297A, name in Kabat numbering)
heavy: B1 heavy with Y33W, Y61A
chain: B1 chain
light: B1 light
B30: CE115HA000 Y59S one-arm antibody (antibody, human IgG1, kappa, L234A L235A, N297A, name in Kabat numbering)
heavy: B1 heavy with Y33W, Y62S
chain: B1 chain
light: B1 light
B31: CE115HA000 Y100Q one-arm antibody (antibody, human IgG1, kappa, L234A L235A, N297A, name in Kabat numbering)
heavy: B1 heavy with Y33W, Y106Q
chain: B1 chain
light: B1 light

The test deals with T1, CD3 epsilon homodimer protein (UniProt P07766 23-126).
T1 construct: immobilized on Sensor chip CM4 by amine coupling; also called CD3 (CD3 epsilon)
T1 sequence (P07766 23-126): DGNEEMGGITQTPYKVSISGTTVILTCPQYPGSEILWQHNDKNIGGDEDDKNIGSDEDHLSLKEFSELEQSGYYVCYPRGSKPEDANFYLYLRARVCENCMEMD
Put plainly: SPR (Biacore T200), CD3 epsilon homodimer on CM4 chip, one-arm antibody as analyte, 25 C.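 Also: homodimer attached to the sensor surface via amine coupling, HBS-EP+ used as running buffer during binding runs.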 Background: In SPR one partner is held on a chip, and binding of the other changes the refractive index at the surface.
Turning to B1, the “ratio of amounts bound (altered form / CE115HA000)” value was 0.66.

Regarding B2, the “ratio of amounts bound (altered form / CE115HA000)” value was found to be 0.7.

In the case of B3, the “ratio of amounts bound (altered form / CE115HA000)” value was 0.24.

Consider B4, for which the “ratio of amounts bound (altered form / CE115HA000)” value is 0.81.

As to B5, the “ratio of amounts bound (altered form / CE115HA000)” value turned out to be 0.18.

With B6, the “ratio of amounts bound (altered form / CE115HA000)” value came out at 0.52.

Regarding B7, the “ratio of amounts bound (altered form / CE115HA000)” value worked out at 0.45.

For the molecule B8, the “ratio of amounts bound (altered form / CE115HA000)” value was 0.6.

Regarding B9, the “ratio of amounts bound (altered form / CE115HA000)” value amounted to 0.33.

As to B10, the “ratio of amounts bound (altered form / CE115HA000)” value stood at 0.11.

For B11, the “ratio of amounts bound (altered form / CE115HA000)” value turned out to be 0.26.

Take B12: the “ratio of amounts bound (altered form / CE115HA000)” value worked out at 0.27.

Consider B13, for which the “ratio of amounts bound (altered form / CE115HA000)” value was 0.3.

As to B14, the “ratio of amounts bound (altered form / CE115HA000)” value was 0.85.

B15: the “ratio of amounts bound (altered form / CE115HA000)” value was found to be 1.07.

As to B16, the “ratio of amounts bound (altered form / CE115HA000)” value is 0.18.

Turning to B17, the “ratio of amounts bound (altered form / CE115HA000)” value is 0.55.

Consider B18, for which the “ratio of amounts bound (altered form / CE115HA000)” value was 0.27.

With B19, the “ratio of amounts bound (altered form / CE115HA000)” value stood at 0.19.

Regarding B20, the “ratio of amounts bound (altered form / CE115HA000)” value amounted to 1.07.

Take B21: the “ratio of amounts bound (altered form / CE115HA000)” value was 0.18.

As to B22, the “ratio of amounts bound (altered form / CE115HA000)” value amounted to 0.66.

For B23, the “ratio of amounts bound (altered form / CE115HA000)” value turned out to be 1.03.

For B24, the “ratio of amounts bound (altered form / CE115HA000)” value is 0.9.

Regarding B25, the “ratio of amounts bound (altered form / CE115HA000)” value was 0.16.

As for B26, the “ratio of amounts bound (altered form / CE115HA000)” value was found to be 0.11.

As to B27, the “ratio of amounts bound (altered form / CE115HA000)” value was determined as 0.7.

On to B28, for which the “ratio of amounts bound (altered form / CE115HA000)” value was determined as 0.48.

As to B29, the “ratio of amounts bound (altered form / CE115HA000)” value was 0.22.

For the molecule B30, the “ratio of amounts bound (altered form / CE115HA000)” value amounted to 0.94.

Consider B31, for which the “ratio of amounts bound (altered form / CE115HA000)” value is 0.8.

For the origin of these results see patent US20210388087A1 (Chugai, published 2021).
